This note sets out measurements from patent US20040180354A1 (MANNKIND, published 2004).

Test [1] concerns the target T1, HLA-A2.1 (HLA-A*0201) on the surface of T2 cells (human).
T1 construct: MHC class I molecule on T2 cells
As to the kind of experiment: HLA-A2 binding assay, FACS profiles (T2 cells); the weaker of the two 9-mers.

Test [2] has as its target T1, HLA-A2.1 (HLA-A*0201) on the surface of …. The experiment in a line: T2 cell HLA-A2.1 stabilisation, flow cytometry with FITC anti-HLA A2, A28. On the technique in general: A flow cytometer gives signals particle by particle.
Test [3] shares this target. The experiment in a line: T2 cell HLA-A*0201 stabilisation, flow cytometry.
Test [4] shares this target. The experiment in a line: HLA-A2 binding assay, FACS profiles (T2 cells).

B1: tyrosinase208-216, LPWHRLFLL (peptide)
peptide: LPWHRLFLL
notes: Synthetic 9-mer from tyrosinase; also called Tyr 208-216
Take B1: the binding result in test [1] is recorded as “binds”.
For the molecule KASEKIFYV (also called 15) [SSX-2 41-49, KASEKIFYV], the binding result in test [2] was “binds”.

B2: PSMA663-671 (SEQ ID NO. 66) (peptide)
peptide: MMNDQLMFL
notes: Synthetic 9-mer from prostate specific membrane antigen
Turning to B2, the binding result in test [3] is “binds”.

B3: tyrosinase207-215, FLPWHRLFL (peptide)
peptide: FLPWHRLFL
notes: Synthetic 9-mer from tyrosinase; also called Tyr 207-215
For B3, the binding result in test [4] is “binds”.
